From patent US20090311710A1, “MUTAGENESIS METHODS USING RIBAVIRIN AND/OR RNA REPLICASES” (priority 2002, published 2009) come the findings set out here.

The test system of this assay is TEM-1 Θ-lactamase (bla) gene expressed in bacteria. Briefly: Cefotaxime resistance (MIC) conferred by mutant bla clones. The conditions noted are these: bla clone expressed in bacteria; listed as wild-type bla gene. The assay is classed as cell-based. From the text: T7 RNA polymerase with the addition of 1000TM ribavirin 5′ triphosphate (dTRV) was used to transcribe (−) RNA from the bla gene θ-lactamase gene for antibiotic resistance) on plasmid pEGX205. The bla RNA was subsequently converted to cDNA using M-MuLV-reverse transcriptase, amplified with Pfu DNA polymerase, cut with appropriate restriction enzymes, and cloned into the plasmid pEGX212. Clones resistant to increased concentrations of cefotaxime were selected and sequenced (the minimum inhibitory concentration [MIC] for the wild-type bla gene was 0.02 ug/ml). […] When clone CefR E1 RNA was taken through a second round of T7 polymerase/dTRV mutagenesis, 3 clones containing 3 or more mutations were selected with one clone (F-E1-1) showing a 10,000-fold increase in cefotaxime resistance over the wild-type. No resistant mutants were isolated in the mutation/selection experiments that used T7 polymerase alone.

B1: Wild-type: wild-type TEM-1 β-lactamase (bla) gene for antibiotic resistance (protein, UniProt P62593 24-286, looked up)
Beta-lactamase TEM: HPETLVKVKDAEDQLGARVGYIELDLNSGKILESFRPEERFPMMSTFKVLLCGAVLSRVDAGQEQLGRRIHYSQNDLVEYSPVTEKHLTDGMTVRELCSAAITMSDNTAANLLLTTIGGPKELTAFLHNMGDHVTRLDRWEPELNEAIPNDERDTTMPAAMATTLRKLLTGELLTLASRQQLIDWMEADKVAGPLLRSALPAGWFIADKSGAGERGSRGIIAALGPDGKPSRIVVIYTTGSQATMDERNRQIAEIGASLIKHW
For B1, the “cefotaxime minimum inhibitory concentration (MIC)” value is 0.02 µg/mL.
